The supplement of paper PMC9112550, “Optimization of the antimicrobial peptide Bac7 by deep mutational scanning” (BMC Biology, 2022)

Tested on: Escherichia coli TOP10
Experiment: shrunken log2 fold change of peptide-encoding DNA abundance (4.5 h post-induction vs induction); higher = less antimicrobial activity (less host growth inhibition)
Details: time post-induction: 4.5 h; library: site-saturation at positions 5, 18, 19, 20
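Further: peptides expressed intracellularly from a pBAD plasmid library in pooled LB shake-flask culture, induced with 0.3% L-arabinose, DNA abundance read by NGS, three biological replicates, DESeq2 with apeglm shrinkage.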

Sequence	shrunken log2 fold change
RRIRIRPPRLPRPRPRPMSIPRP	-0.0563
RRIRFRPPRLPRPRPRPFFHPRP	-0.18
RRIRKRPPRLPRPRPRPDKTPRP	-0.0726
RRIRSRPPRLPRPRPRPQIWPRP	-0.167
RRIRWRPPRLPRPRPRPSLHPRP	-0.044
RRIRNRPPRLPRPRPRPYYFPRP	-0.695
RRIRGRPPRLPRPRPRPESDPRP	2.08
RRIRGRPPRLPRPRPRPSLVPRP	0.473
RRIRRRPPRLPRPRPRPQNHPRP	-0.191
RRIRSRPPRLPRPRPRPKTVPRP	0.0369
RRIRIRPPRLPRPRPRPRHSPRP	-0.646
RRIRERPPRLPRPRPRPDHQPRP	-0.223
RRIRLRPPRLPRPRPRPYVNPRP	-0.23
RRIRHRPPRLPRPRPRPEDSPRP	0.0648
RRIRKRPPRLPRPRPRPSWTPRP	-0.0691
RRIRERPPRLPRPRPRPMFGPRP	0.0215
RRIRLRPPRLPRPRPRPCQFPRP	-0.0181
RRIRDRPPRLPRPRPRPTGLPRP	-0.000418
RRIRARPPRLPRPRPRPHPDPRP	0.395
RRIRKRPPRLPRPRPRPFEVPRP	-0.0185

Sequence	shrunken log2 fold change
RRIRMRPPRLPRPRPRPYSGPRP	-0.00278
RRIRIRPPRLPRPRPRPDHQPRP	-0.0128
RRIRMRPPRLPRPRPRPYPDPRP	-0.0456
RRIRNRPPRLPRPRPRPELSPRP	0.0211
RRIRGRPPRLPRPRPRPVHWPRP	0.601
RRIRERPPRLPRPRPRPEIEPRP	0.0286
RRIRCRPPRLPRPRPRPDHNPRP	-0.239
RRIRWRPPRLPRPRPRPRLHPRP	0.191
RRIRERPPRLPRPRPRPFWRPRP	0.0935
RRIRNRPPRLPRPRPRPVYAPRP	-0.128
RRIRDRPPRLPRPRPRPMFKPRP	-0.767
RRIRLRPPRLPRPRPRPCTWPRP	0.0461
RRIRDRPPRLPRPRPRPCATPRP	0.00509
RRIRSRPPRLPRPRPRPTFGPRP	-0.0366
RRIRWRPPRLPRPRPRPFKNPRP	-0.274
RRIRYRPPRLPRPRPRPPRIPRP	-0.0175
RRIRNRPPRLPRPRPRPACPPRP	0.307
RRIRNRPPRLPRPRPRPNFAPRP	0.0544
RRIRERPPRLPRPRPRPMEPPRP	0.0704
RRIRQRPPRLPRPRPRPVASPRP	-0.0704

Sequence	shrunken log2 fold change
RRIRFRPPRLPRPRPRPLDRPRP	0.163
RRIRWRPPRLPRPRPRPSDHPRP	-0.474
RRIRTRPPRLPRPRPRPRLLPRP	0.0778
RRIRQRPPRLPRPRPRPAKTPRP	-0.0724
RRIRKRPPRLPRPRPRPKPEPRP	0.781
RRIRQRPPRLPRPRPRPTLAPRP	0.783
RRIRRRPPRLPRPRPRPLDVPRP	0.179
RRIRTRPPRLPRPRPRPEMIPRP	0.0294
RRIRLRPPRLPRPRPRPDTHPRP	-0.543
RRIRHRPPRLPRPRPRPHPYPRP	-0.462
RRIRFRPPRLPRPRPRPVHQPRP	0.124
RRIRVRPPRLPRPRPRPRQAPRP	0.224
RRIRDRPPRLPRPRPRPKTSPRP	0.0412
RRIRKRPPRLPRPRPRPIIAPRP	-0.0395
RRIRQRPPRLPRPRPRPFCFPRP	0.117
RRIRGRPPRLPRPRPRPCYCPRP	-0.164
RRIRPRPPRLPRPRPRPPEQPRP	0.206
RRIRSRPPRLPRPRPRPENNPRP	-0.449
RRIRQRPPRLPRPRPRPVIHPRP	-0.455
RRIRPRPPRLPRPRPRPVFFPRP	0.213
